Measurements taken from the supplement of paper PMC9233669.
Fewer inactive variants are shown than the library holds.

Key:
[1] = test system: biotinyl-Ile-oxazolone; assay: self-aminoacylation, catalytic enhancement (BIO) (fold over background); higher = more active; k-Seq, kA / k0A0; sequences stand for … in GGGAAUGGAUCCACAUCUACGAAUUC…UUCACUGCAGACUUGACGAAGCUG
How it was run: (§1)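 Mutagenized RNA pools (0.43 μM; 21-nt variable region) were treated with 2–1250 μM of each biotinyl-aminoacyl-oxazolone. Conditions were 50 μL HEPES/NaCl/KCl/MgCl2/CaCl2 buffer, 5% acetonitrile, pH 6.9–7.0, room temperature, 90 minutes. Catalytic enhancement, the median kA relative to the uncatalyzed rate, was derived from streptavidin capture, qPCR and Illumina sequencing.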

[2] = test system: biotinyl-Met-oxazolone; assay: self-aminoacylation, catalytic enhancement (BMO) (fold over background); higher = more active; k-Seq, kA / k0A0; sequences stand for … in GGGAAUGGAUCCACAUCUACGAAUUC…UUCACUGCAGACUUGACGAAGCUG
How it was run: as §1

[3] = test system: biotinyl-Val-oxazolone; assay: self-aminoacylation, catalytic enhancement (BVO) (fold over background); higher = more active; k-Seq, kA / k0A0; sequences stand for … in GGGAAUGGAUCCACAUCUACGAAUUC…UUCACUGCAGACUUGACGAAGCUG
How it was run: as §1

[4] = test system: biotinyl-Trp-oxazolone; assay: self-aminoacylation, catalytic enhancement (BWO) (fold over background); higher = more active; k-Seq, kA / k0A0; sequences stand for … in GGGAAUGGAUCCACAUCUACGAAUUC…UUCACUGCAGACUUGACGAAGCUG
How it was run: as §1

[5] = test system: biotinyl-Phe-oxazolone; assay: self-aminoacylation, catalytic enhancement (BFO) (fold over background); higher = more active; k-Seq, kA / k0A0; sequences stand for … in GGGAAUGGAUCCACAUCUACGAAUUC…UUCACUGCAGACUUGACGAAGCUG
How it was run: as §1

[6] = test system: biotinyl-Leu-oxazolone; assay: self-aminoacylation, catalytic enhancement (BLO) (fold over background); higher = more active; k-Seq, kA / k0A0; sequences stand for … in GGGAAUGGAUCCACAUCUACGAAUUC…UUCACUGCAGACUUGACGAAGCUG
How it was run: as §1

Row | Sequence | self-aminoacylation [1] | self-aminoacylation [2] | self-aminoacylation [3] | self-aminoacylation [4] | self-aminoacylation [5] | self-aminoacylation [6]
1 | AUUACCCUGGUCAGCUAGUGA [Fam2.1 aminoacylation ribozyme variant] | 2.53 | 3.32 | 2.34 | 3.12 | 6.76 | 3.32
2 | AUUACCCUGGUCAUAAAGUGA [Fam2.1 aminoacylation ribozyme variant] | 4.88 | 11.1 | 5.16 | 13.4 | 43.9 | 10.3
3 | AUUACCCUGGUCAUAGAGUAA [Fam2.1 aminoacylation ribozyme variant] | 1.44 | 1.17 | 1.29 | 0.757 | 0.983 | 1.37
4 | AUUACCCUGGUCAUAGAGUGU [Fam2.1 aminoacylation ribozyme variant] | 2.08 | 4.07 | 2.58 | 4.8 | 13.5 | 3.73
5 | AUUACCCUGGUCAUCAAUUGA [Fam2.1 aminoacylation ribozyme variant] | 0.823 | 0.948 | 0.92 | 0.826 | 0.681 | 0.963
6 | AUUACCCUGGUCAUCAGGUGA [Fam2.1 aminoacylation ribozyme variant] | 2.6 | 5.07 | 3.03 | 5.53 | 29.8 | 4.45
7 | AUUACCCUGGUCAUCCAGCGA [Fam2.1 aminoacylation ribozyme variant] | 2.7 | 3.38 | 2.68 | 3.97 | 10.1 | 4.08
8 | AUUACCCUGGUCAUCCAGUGU [Fam2.1 aminoacylation ribozyme variant] | 1.95 | 3.14 | 1.81 | 3.1 | 7.23 | 3.15
9 | AUUACCCUGGUCAUCCGGUGA [Fam2.1 aminoacylation ribozyme variant] | 6.78 | 8.7 | 6.25 | 9.05 | 52.5 | 9.32
10 | AUUACCCUGGUCAUCCUGUGA [Fam2.1 aminoacylation ribozyme variant] | 1.51 | 1.39 | 1.07 | 1.52 | 2.81 | 1.71
11 | AUUACCCUGGUCAUCGACAGA [Fam2.1 aminoacylation ribozyme variant] | 1.04 | 0.716 | 0.774 | 0.676 | 0.705 | 0.738
12 | AUUACCCUGGUCAUCGACUUA [Fam2.1 aminoacylation ribozyme variant] | 0.596 | 0.636 | 0.818 | 0.414 | 0.425 | 0.544
13 | AUUACCCUGGUCAUCGAGCGC [Fam2.1 aminoacylation ribozyme variant] | 2.09 | 2.53 | 2.29 | 1.16 | 1.86 | 2.33
14 | AUUACCCUGGUCAUCGAGCGU [Fam2.1 aminoacylation ribozyme variant] | 2.77 | 4.25 | 2.36 | 4.83 | 4.33 | 4.95
15 | AUUACCCUGGUCAUCGAGUGU [Fam2.1 aminoacylation ribozyme variant] | 31.7 | 108 | 37.4 | 104 | 785 | 105
16 | AUUACCCUGGUCAUCGAUUAA [Fam2.1 aminoacylation ribozyme variant] | 1.02 | 0.935 | 1.1 | 0.619 | 0.508 | 0.933
17 | AUUACCCUGGUCAUCGAUUGG [Fam2.1 aminoacylation ribozyme variant] | 0.665 | 0.715 | 0.856 | 1.3 | 0.798 | 0.713
18 | AUUACCCUGGUCAUCGCGUAA [Fam2.1 aminoacylation ribozyme variant] | 2.73 | 4.04 | 3.48 | 5.11 | 28.4 | 2.97
19 | AUUACCCUGGUCAUCGGAUGA [Fam2.1 aminoacylation ribozyme variant] | 1.4 | 1.16 | 1.36 | 1.62 | 0.931 | 1.65
20 | AUUACCCUGGUCAUCGGGCGA [Fam2.1 aminoacylation ribozyme variant] | 4.15 | 8.99 | 4.62 | 8.14 | 20.1 | 10
21 | AUUACCCUGGUCAUCGGGGGA [Fam2.1 aminoacylation ribozyme variant] | 4.75 | 7.12 | 5.36 | 10.7 | 44.2 | 9.21
22 | AUUACCCUGGUCAUCGUGUAA [Fam2.1 aminoacylation ribozyme variant] | 1.13 | 1.07 | 1.18 | 0.503 | 0.847 | 1.26
23 | AUUACCCUGGUCAUCGUGUGC [Fam2.1 aminoacylation ribozyme variant] | 0.992 | 0.938 | 0.881 | 0.349 | 1.25 | 1.12
24 | AUUACCCUGGUCAUCGUUUGA [Fam2.1 aminoacylation ribozyme variant] | 0.923 | 0.71 | 0.821 | 0.734 | 0.693 | 0.963
25 | AUUACCCUGGUCAUCUACUGA [Fam2.1 aminoacylation ribozyme variant] | 0.925 | 0.663 | 0.856 | 0.358 | 0.799 | 0.676
26 | AUUACCCUGGUCAUCUAGGGA [Fam2.1 aminoacylation ribozyme variant] | 1.36 | 1.17 | 1.32 | 0.956 | 1.72 | 1.47

Row | Sequence | self-aminoacylation [1] | self-aminoacylation [2] | self-aminoacylation [3] | self-aminoacylation [4] | self-aminoacylation [5] | self-aminoacylation [6]
27 | AUUACCCUGGUCAUCUAGUGG [Fam2.1 aminoacylation ribozyme variant] | 1.3 | 2.14 | 1.48 | 2.08 | 2.7 | 2.32
28 | AUUACCCUGGUCAUCUAUUGA [Fam2.1 aminoacylation ribozyme variant] | 1.08 | 0.879 | 1.11 | 0.789 | 0.868 | 0.839
29 | AUUACCCUGGUCAUGGAGCGA [Fam2.1 aminoacylation ribozyme variant] | 1.27 | 1.59 | 1.29 | 1.32 | 3.2 | 1.72
30 | AUUACCCUGGUCAUGGCGUGA [Fam2.1 aminoacylation ribozyme variant] | 7 | 16.2 | 10.3 | 19.4 | 125 | 17.4
31 | AUUACCCUGGUCAUUGUGUGA [Fam2.1 aminoacylation ribozyme variant] | 1.46 | 2.59 | 1.49 | 3.23 | 8.81 | 2.23
32 | AUUACCCUGGUCCUCCAGUGA [Fam2.1 aminoacylation ribozyme variant] | 4.44 | 7.44 | 3.79 | 9.12 | 49.6 | 8.6
33 | AUUACCCUGGUCCUUGAGUGA [Fam2.1 aminoacylation ribozyme variant] | 3.86 | 8.05 | 3.86 | 9.98 | 56.2 | 8.35
34 | AUUACCCUGGUCGUCGAGUGU [Fam2.1 aminoacylation ribozyme variant] | 1.07 | 1.39 | 1.2 | 1.15 | 2.78 | 1.08
35 | AUUACCCUGGUCUUCGAGCGA [Fam2.1 aminoacylation ribozyme variant] | 0.901 | 1.09 | 1.23 | 1.16 | 0.753 | 1.11
36 | AUUACCCUGGUCUUCGAGGGA [Fam2.1 aminoacylation ribozyme variant] | 1.5 | 1.15 | 1.35 | 1.31 | 0.74 | 1.54
37 | AUUACCCUGGUCUUCGAGUGU [Fam2.1 aminoacylation ribozyme variant] | 1.52 | 1.96 | 1.57 | 2.23 | 1.76 | 2.03
38 | AUUACCCUGGUCUUUGAGUGA [Fam2.1 aminoacylation ribozyme variant] | 4.05 | 7.29 | 4.17 | 9.67 | 41.8 | 8.33
39 | AUUACCCUGGUGACCGAGUGA [Fam2.1 aminoacylation ribozyme variant] | 4.29 | 9.44 | 4.93 | 12.5 | 66.1 | 11.1
40 | AUUACCCUGGUGAUCGAGCGA [Fam2.1 aminoacylation ribozyme variant] | 2.06 | 1.76 | 1.95 | 1.82 | 5 | 1.93
41 | AUUACCCUGGUGAUCGAGUAA [Fam2.1 aminoacylation ribozyme variant] | 1.24 | 1.54 | 1.23 | 2.15 | 0.541 | 1.21
42 | AUUACCCUGGUGAUCGGGUGA [Fam2.1 aminoacylation ribozyme variant] | 3.43 | 5.18 | 4.27 | 6.86 | 39.5 | 7.07
43 | AUUACCCUGGUGAUCUAGUGA [Fam2.1 aminoacylation ribozyme variant] | 3.11 | 7.61 | 3.29 | 8.61 | 45.1 | 6.59
44 | AUUACCCUGGUUAUCCAGUGA [Fam2.1 aminoacylation ribozyme variant] | 5.5 | 11.5 | 5.13 | 14.2 | 74.4 | 11.6
45 | AUUACCCUGGUUAUCGAAUGA [Fam2.1 aminoacylation ribozyme variant] | 0.965 | 0.971 | 0.846 | 0.677 | 0.877 | 0.866
46 | AUUACCCUGGUUAUGGAGUGA [Fam2.1 aminoacylation ribozyme variant] | 3.95 | 7.77 | 3.93 | 8.01 | 47.4 | 7.9
47 | AUUACCCUGGUUUUCGAGUGA [Fam2.1 aminoacylation ribozyme variant] | 3.74 | 8.29 | 4.43 | 10.9 | 45.7 | 9.42
48 | AUUACCCUGUUCAACGAGUGA [Fam2.1 aminoacylation ribozyme variant] | 5.25 | 11.2 | 5.18 | 13.4 | 57 | 11.8
49 | AUUACCCUGUUCAUCGAAUGA [Fam2.1 aminoacylation ribozyme variant] | 0.982 | 1.16 | 1.13 | 0.767 | 1.18 | 0.871
50 | AUUACCCUGUUCAUCGAGCGA [Fam2.1 aminoacylation ribozyme variant] | 1.2 | 1.35 | 1.33 | 1.08 | 1.13 | 1.36
51 | AUUACCCUGUUCAUCGAGUGG [Fam2.1 aminoacylation ribozyme variant] | 1.08 | 1.03 | 1.29 | 1.48 | 0.962 | 1.25
